# Experimental data published in the supplement of paper PMC10724198.
# ± gives the standard deviation of the averaged measurements.
# System: Saccharomyces cerevisiae
# Assay: protein stability index of tFT-peptide fusion (C-terminal peptide) (PSI (0-1 scale)); higher = more stable (slower turnover)
# Conditions: genetic background: wild type; temperature: 30 C
# Description: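 Multiplexed protein stability (MPS) profiling in S. cerevisiae. Random 12-aa peptides (tFT-X12 library) are fused to the C-terminus of a sfGFP-mCherry tandem fluorescent timer, after mCherry and a GGGS linker. Cells are FACS-sorted into 8 mCherry/sfGFP bins and deep-sequenced. The protein stability index (PSI) is the read-weighted bin average, scaled from 0 (unstable) to 1 (stable). Only peptides with >10 reads are reported; cells were grown at 30 °C in SC-His with glucose.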
# 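Note: PSI is a weighted mean of sequencing reads over stability bins, variants kept only with over 10 reads, mCherry proximal and sfGFP distal, peptide attached via GGGS linker.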
row,Sequence,protein stability index
1,PSPPPPLAPCLP,0.666 ± 0.038
2,GRLIERCSLRMT,0.68 ± 0.055
3,DPLVDLCGPLSL,0.717 ± 0.077
4,RGAPLSPPPPRS,0.714 ± 0.13
5,PLPPFPPSPPFT,0.684 ± 0.036
6,GGPASSGLMDGY,0.698 ± 0.0062
7,APRPAPRPTPLG,0.706 ± 0.051
8,FPLPSPPRPFSF,0.761 ± 0.041
9,TRGMDYWLFTGD,0.706 ± 0.0031
10,SAQGPVLFSTGP,0.716 ± 0.044
11,LPPPSPPTPPFP,0.691 ± 0.018
12,YAYLGSNLKQTA,0.703 ± 0.03
13,SGWEVAGGCDNK,0.692 ± 0.0021
14,DCYSKLQSRKCG,0.682 ± 0.018
15,SLASYFFHVSHS,0.7127 ± 0.0064
16,PFSTVDLATAYP,0.712 ± 0.017
17,PLPPPPPPPHSP,0.738 ± 0.05
18,RRSDTTQQSVSL,0.623 ± 0.077
19,RGSWSDEFWREG,0.84 ± 0.056
20,IDLLTRKVDLFN,0.66 ± 0.055
21,GSVLPPPAPPPL,0.674 ± 0.021
22,PPPAYTPPLPPP,0.669 ± 0.0073
23,PSPDLRAPSSVR,0.731 ± 0.024
24,ITNQVIRLSLSN,0.732 ± 0.083
25,EGYEATYLGVFV,0.706 ± 0.031

row,Sequence,protein stability index
1,SLFFGDCNLVRV,0.7166 ± 0.0036
2,VREILKDGIFDP,0.717 ± 0.043
3,LKLQGGCLETGA,0.602 ± 0.015
4,TVERLGSRRGMA,0.712 ± 0.022
5,DKNDGNHKKKKN,0.702 ± 0.017
6,FKRLSTDCSVNS,0.687 ± 0.061
7,FGSLRLQITVNP,0.557 ± 0.098
8,WVPCGYIERAPL,0.582 ± 0.05
9,PPPAPARPPTPP,0.686 ± 0.11
10,GGCGGGCGACVV,0.701 ± 0.025
11,PRFFTRYRCYSA,0.793 ± 0.064
12,STVLGPPLGLGT,0.69 ± 0.054
13,PPHSALPLPPSP,0.726 ± 0.039
14,DALGRSTKGGHW,0.689 ± 0.024
15,LGGVRRRDWQEG,0.677 ± 0.016
16,ARFGYYLGLGRC,0.748 ± 0.065
17,KKKKKRITKIKN,0.7089 ± 0.0018
18,SSPIRPFLPPGY,0.6709 ± 0.0049
19,PPPPPPPRPDPP,0.557 ± 0.04
20,LATDVGHRLLGI,0.707 ± 0.042
21,LPLPPPSPFPPL,0.691 ± 0.015
22,RTRRPSRTRSAS,0.772 ± 0.072
23,VGYGTGGAGGVE,0.766 ± 0.044
24,PRFPLPPHPSPR,0.704 ± 0.03
25,SPLPPPLPPFPP,0.6171 ± 0.0056

row,Sequence,protein stability index
1,GRRFCYQASAGQ,0.642 ± 0.0093
2,HSWSLLFSPSFP,0.658 ± 0.082
3,STCRCGGFRNGS,0.762 ± 0.068
4,PPPPHAHFPPPP,0.652 ± 0.013
5,RAALEAPGCIQV,0.73316 ± 3e-05
6,RLSGWGLGVWQE,0.681 ± 0.042
7,SYSSRSCALRVI,0.533 ± 0.043
8,PSYTSYFVGLST,0.48 ± 0.11
9,GVFASWAWFGVG,0.71 ± 0.046
10,FSLLTFPPSSPT,0.716 ± 0.016
11,PSPLRDLRSTAL,0.663 ± 0.031
12,ERGREVVSRGVQ,0.724 ± 0.014
13,VVGSAGGGGFVL,0.6717 ± 0.0065
14,AVRGYGCGGGTG,0.6971 ± 0.0012
15,TSSPVFPFPPTP,0.745 ± 0.042
16,LPPSPRLSFSPP,0.701 ± 0.034
17,PMPPPRRPTALC,0.716 ± 0.038
18,FASSSDSLWRGI,0.679 ± 0.014
19,RCRCPHFLCRFS,0.6165 ± 0.0049
20,FSISCFRVSSDF,0.761 ± 0.032
21,IASSRPHSNQRE,0.692 ± 0.021
22,KPKRIRCDRSPH,0.694 ± 0.019
23,RGRRRAADRSLR,0.749 ± 0.14
24,SSSLRLCSCAGQ,0.723 ± 0.049
25,WFVCVARCPFPF,0.623 ± 0.035

row,Sequence,protein stability index
1,IECACVPLVAGG,0.656 ± 0.024
2,RGGFVEGFVLVR,0.611 ± 0.073
3,PPLPPSSPRSLL,0.701 ± 0.018
4,SPPRPSSPRASP,0.664 ± 0.074
5,SPPAALLPLFLR,0.676 ± 0.051
6,PRLCLVAGRCRS,0.614 ± 0.04
7,FFMEKPSSGCTS,0.685 ± 0.017
8,SPSPPLPFSRPP,0.686 ± 0.044
9,PSSLFPPPPSVL,0.685 ± 0.029
10,PQTPPSTLLLPP,0.61 ± 0.1
11,CLSSVSLSNVSV,0.669 ± 0.068
12,PTSPPPPLPPPS,0.7066 ± 0.0036
13,VASSGRSPTPTR,0.7551 ± 0.0015
14,TQHKANQGLELI,0.663 ± 0.008
15,FAVLSFRFPGGL,0.693 ± 0.099
16,VMLGGWRVPGER,0.7754 ± 0.0033
17,EVNGNYNIVGKA,0.652 ± 0.07
18,TPLSSPHPSPPP,0.595 ± 0.045
19,KLRSTLVSAQGV,0.652 ± 0.015
20,HLGTLYSSPLYR,0.66289 ± 0.00054
21,GGWGGVCGACVV,0.702 ± 0.035
22,DVLDCTLVEQGA,0.68 ± 0.035
23,SLSVPPRPSSPP,0.624 ± 0.017
24,WISLRRIKSNRE,0.802 ± 0.014
25,YTPLLAHRGCCC,0.695 ± 0.029

row,Sequence,protein stability index
1,SIIYKRKKGRRW,0.714 ± 0.039
2,LLRALPSYRPFP,0.696 ± 0.016
3,KAKKKRRGTSKN,0.703 ± 0.066
4,ERKESKSRKVER,0.726 ± 0.081
5,NPSRASAWPHVH,0.607 ± 0.061
6,DICCGLCGLLPR,0.658 ± 0.079
7,LLMHPCTVELIS,0.594 ± 0.042
8,KNKKNKKKKTMK,0.685 ± 0.041
9,PRALSMGGPRYQ,0.5929 ± 0.0021
10,HPHAIDPKIESI,0.693 ± 0.035
11,STVPSLVAGATF,0.729 ± 0.11
12,CQNLVCRCCLWI,0.6423 ± 0.0059
13,EVTEIAQFRDKR,0.7 ± 0.017
14,RVPLHSSTVFWL,0.7 ± 0.04
15,NMGRCEGGKTAR,0.643 ± 0.016
16,SFAQANRYLTSL,0.699 ± 0.012
17,DGVGRLADGRGI,0.688 ± 0.013
18,CGGDGRTPTTHT,0.665 ± 0.019
19,CSHSLFASCSSL,0.695 ± 0.021
20,PPPPSAPPLPLP,0.61 ± 0.018
21,PGLLPTPSSPVP,0.821 ± 0.032
22,AQTRSVGWEFGY,0.685 ± 0.0093
23,GVFGWAGCGVVL,0.7188 ± 0.0043
24,EMYEKLKSYIVK,0.685 ± 0.013
25,PSSAPPGSPGHL,0.701 ± 0.019

row,Sequence,protein stability index
1,PPPPPRPPLPHL,0.686 ± 0.038
2,KRGYLRTNPLSY,0.7056 ± 0.0061
3,KGGCGAGRDGRG,0.731 ± 0.026
4,TWKARFFMDLGN,0.672 ± 0.12
5,KKKKKKNKKEKK,0.689 ± 0.12
6,RFGWRRGRVGSS,0.734 ± 0.038
7,GLYHGFCLSGCL,0.678 ± 0.04
8,EKTNQPFHTLHA,0.673 ± 0.011
9,AGPATSSSPPVS,0.688 ± 0.032
10,SLFPPAPPPPRS,0.641 ± 0.098
11,RPPPPRLTPPRL,0.756 ± 0.084
12,PRSPPPPLLSPP,0.692 ± 0.037
13,WCSRRIDWSSAP,0.7318 ± 0.002
14,SVLLRPPLLFHP,0.722 ± 0.019
15,FVAGFAGGAVGV,0.72 ± 0.0078
16,PSLDCMSIEETT,0.679 ± 0.017
17,PSPPLPPRPPTL,0.743 ± 0.013
18,TSIDIEWYNSLM,0.589 ± 0.026
19,LMYPGTSPLSPH,0.711 ± 0.092
20,SRRVSLGLSVDS,0.662 ± 0.074
21,SGFVQRLHVICN,0.5706 ± 0.0011
22,VEHILQGVKYRR,0.717 ± 0.098
23,VLSVLGLGFWGG,0.8042 ± 0.0076
24,REKEKMRVVGMT,0.746 ± 0.036
25,RGMGPGAFVSGQ,0.677 ± 0.077

row,Sequence,protein stability index
1,MYRSLPRLKQTY,0.721 ± 0.031
2,PGGSVYKPLATA,0.644 ± 0.071
3,AAALPSNLLSSF,0.656 ± 0.017
4,PPPRPLQPRPRP,0.6502 ± 0.0019
5,IKREGRDNEEKK,0.703 ± 0.039
6,VVGAALRDGPRE,0.71 ± 0.012
7,GESRPPLASPHP,0.708 ± 0.0087
8,PLPIPPRRPNSP,0.65 ± 0.091
9,RSSPAVPPSPRP,0.6918 ± 0.0066
10,LRWGLFSLAWVT,0.5437 ± 0.00065
11,VSHVRVNESAAN,0.677 ± 0.0078
12,RVSGSFSCVCES,0.6814 ± 0.0054
13,ARQHGLELTNPR,0.678 ± 0.015
14,LERCKSLDSIVL,0.701 ± 0.071
15,LPPCPPGGRRSR,0.706 ± 0.036
16,LRGACWLARTRT,0.677 ± 0.018
17,ESPTWVVLEGLG,0.6996 ± 0.0014
18,HYPGSGAVEQHE,0.599 ± 0.016
19,GGRPIRNTTREG,0.655 ± 0.022
20,ARSHSPPPPRPP,0.6723 ± 0.0029
21,GVVRLYYLRIGR,0.652 ± 0.11
22,APSVSHAPSRLL,0.706 ± 0.023
23,SPAASPVPLHPR,0.603 ± 0.15
24,RVHSRSYNVMLD,0.6988 ± 0.00049
25,LRYLEGWWVLRW,0.554 ± 0.063

row,Sequence,protein stability index
1,LLPHLLVLLPSS,0.623 ± 0.0049
2,ASLTNERCGASR,0.679 ± 0.019
3,SPSLSFVFPVSL,0.756 ± 0.039
4,VGLGEGGGVGEG,0.678 ± 0.079
5,KVGWGMRGVRGG,0.66 ± 0.015
6,LHAGWNLISSRL,0.633 ± 0.037
7,FWHERVSSTVKR,0.731 ± 0.025
8,HKLYATANHSPM,0.672 ± 0.1
9,RRMCARRSAAIV,0.665 ± 0.046
10,IGLISTQYYWSL,0.621 ± 0.043
11,GGAGGRRRIGGG,0.622 ± 0.048
12,RNLRFEVLAVVI,0.5272 ± 0.0049
13,VLFLGVRCSCLG,0.533 ± 0.014
14,PAPAVPPQTTPM,0.6693 ± 0.001
15,GVCRVAVGGGAT,0.713 ± 0.033
16,PVPVFLLLFFSP,0.496 ± 0.052
17,PHNSARSLPLHF,0.717 ± 0.052
18,GVGREGEIGGGG,0.544 ± 0.037
19,RGIILSSSGFVW,0.735 ± 0.012
20,EMNKGKREKKGE,0.684 ± 0.084
21,PSNPTPLTLLLF,0.641 ± 0.017
